{"source": "paper PMC8776730", "about": "(Nature Communications, 2022)", "key": {"[1]": {"assay": "Critical assembly concentration (CAC) by pyrene fluorescence probe", "type": "physicochemical", "description": "In order to study the molecular design and their assembly behavior, we modular designed and synthesized seven molecules (Table 1), which respectively were BIVA probe: M1 (mPEG-GPAKLVFFGC(IR783)GRGD); the non- FAP-α tailoring molecule: M2 (mPEG-AGGKLVFFGC(IR783)GRGD) scrambled response tailoring motif of Gly-Pro-Ala with Ala-Gly-Gly; the non-labeling molecule of M1: M3 (mPEG-GPAKLVFFGCGRGD) removed IR783 labeling; FAP-α tailoring residue of M1: R-M1 (AKLVFFGC(IR783)GRGD); the non-targeting molecule: M4 (mPEG-GPAKLVFFGC(IR783)GDTG) scrambled targeting tailoring motif of Arg-Gly-Asp with Asp-Thr-Gly; the non-labeling molecule of M2: M5 (mPEG-AGGKLVFFGCGRGD) removed IR783 labeling; FAP-α tailoring residue of M3: R-M3 (AKLVFFGCGRGD). All the synthesized procedure (Supplementary Fig. 1) and characterizations of these seven molecules can be found in SI (Supplementary Figs. 2–8). […] Without IR783 labeling, molecules of M3 and M5 decreased the CAC value in solution relative to M1 and M2, which could be attributed to the proximity of the steric hindrance of hydrophilic IR783 to the self-assembly motif (Supplementary Fig. 9). […] The CAC was quantitatively calculated by fluorescence probe of pyrene."}, "[2]": {"assay": "Secondary structure proportions from CD spectra", "type": "physicochemical", "conditions": "calculated by Reed's Reference based on CD spectra; DI water", "description": "To further evaluate the assembled structures, the corresponding circular dichroism (CD), Fourier transform infrared (FTIR) spectroscopy, and wide-angle X-ray scattering (WAXS) spectroscopy were applied. […] The FITR spectra of M1 and M3 in Fig. 3b observed the intermolecular interactions. The peaks at 1629 cm^−1, 1675 cm^−1, and 1698 cm^–1 of M3 indicated anti-parallel β-sheet structure (represent by green arrow heads), peaks at 1648 cm^−1 and 1663 cm^−1 indicated parallel beta sheet structure (represent by blue arrow heads), the existence of 1654 cm^−1 indicate α-Helix structure in M1 which verified the results deduced by CD in Fig. 3a[29],[30]. […] As a homologous sequence with amyloid β-protein (Aβ), the self-assembly motif with peptide sequence of KLVFFGCG had similar aggregation kinetics to (Aβ)42 peptide, which occurred via dynamic growth from oligomers to amyloid fibrils. The aggregation started from the freshly isolated monomers of R-M1, and precipitates were separated in 1 min and 1 h, respectively. […] After analyzed the CD spectra of M1, M3, and R-M1 (Fig. 3e), it can be clearly seen that the main secondary conformation of M1 was Random, the M3 was hybrid of Helix and Beta, and the R-M1 was Beta (Supplementary Table 1). All the results confirmed the conclusion from FTIR spectra. […] The dynamic growth procedure was like the 8-anilino-1-naphthalenesulfonic acid (ANS) stained curve (Supplementary Fig. 12). As known, ANS was sensitive to hydrophobic interaction. When R-M1 were in the initial oligomer, the fluorescence intensity of ANS increased due to the enhanced hydrophobicity. When the molecules were elongated and stacked in higher ordered nanofibrils, the blue shift of ANS in the β-sheet structures reduced the fluorescence. The molecular packing mode of well-ordered fibrils of R-M1 in Fig. 3g observed a weak reflection at 4.9 Å as laminates space and a strong broad reflection at 10.3 Å as sheet space, which was illustrated in the inserted figure. The fibril morphology was characterized by transmission electron microscopy (TEM) imaging (Fig. 3f). The statistical calculation of the fiber diameter in TEM images was 5.0 ± 0.4 nm (Supplementary Fig. 13), which was corresponded to the theoretical calculated two molecules length of R-M1. We assumed that the nanofibers were assembled by twisted R-M1 molecules centered on self-assembly motif.\nThe secondary structures of M1, M3 and R-M1 were verified by CD spectroscopy (JASCO Corporation, JC-1500) at room temperature with a cell path length of 1 cm. M1, […] and R-M1 were diluted to 100 μM with deionized water at 25 °C and allowed to stand for 12 h for complete assembly. Detail parameter setting were CD scale:200 mdeg/1.0Dod, measure range: 260~190 nm, scanning speed: 500 nm/min, bandwidth: 1.00 nm, and data pitch: 0.5 nm. All spectra were the average of three measurements.\nSupplementary Table 1∣ Secondary structure proportions ofM1, M3 and R-M1 calculated by Reed’s Reference based on […]"}, "MIA PaCa-2 cells": {"test_system": "MIA PaCa-2 cells", "assay": "Cytotoxicity, CCK-8 assay", "type": "cell-based", "conditions": "CCK-8, 24 h, at high concentration of 300 μM", "procedure": "The cytotoxicity of M1 and M2 was evaluated using CCK-8 assay in MIA PaCa-2 cells. Cells were seeded into 96-well plates at a density of 5 × 10^4 cells per well and placed in an incubator for 14 h. Subsequently, the sample was diluted into a series of different concentrations (0, 50, 100, 150, 200, 250, 300, and 350 μM) and incubated with cells for 24 h. After that, 10 μL of CCK-8 solution was added to each well and incubated for 2 h. The absorbance of blank wells (Ab), sample wells (As) and control wells (Ac) were measured with a microplate reader at a test wavelength of 450 nm and a reference wavelength of 690 nm. The cell viability rate (%) is equal to (As -Ab) / (Ac -Ab) ×100%. All experiments were repeated in triplicate.\nSupplementary Fig. 21∣ Cellviability assay of Miapaca-2 cells treated with a series concentration of M1 and M2 for 24 h.\nTested by Cell Counting Kit-8 (Beyotime, C0039) The mean of results of six parallel experiments isshown and data were\nexpressed as mean ± SD (n=6).\n(1 picture or pasted object on this page, not shown here)"}, "[3]": {"test_system": "orthotopic pancreatic tumor (MIA PaCa-2)", "assay": "Ex vivo organ biodistribution, orthotopic pancreatic tumor model", "conditions": "orthotopic tumor mice, i.v. 16 mg/kg, 12 h", "procedure": "To evaluate the imaging property of BIVA probe, the orthotopic pancreatic tumor mice model was built. After intravenous injected M1 and M2 molecules with a dose of 16 mg/kg for 12 h, the mice were sacrificed. […] Then, all the important organs were dissected for ex vivo imaging. […] Upon the individual differences, we validated 6 mice under surgery to induce orthotopic tumor in pancreatic head. […] As known, the FAP-α was a membrane located protein, overexpressed on tumor associate fibroblast cell and pancreatic cell surface."}, "[4]": {"conditions": "mouse, in vivo, iv, 16 mg/kg"}}, "data": [{"substance": "mPEG-GPAKLVFFGC(IR783)GRGD [M1]", "values": [{"measurement": "Critical assembly concentration (CAC)", "setting": "[1]; aqueous solution, analyzed based on pyrene fluorescence", "result": ">500", "unit": "µM"}, {"measurement": "Secondary structure proportion: Beta", "setting": "[2]", "result": 32.2, "unit": "%"}, {"measurement": "Secondary structure proportion: Helix", "setting": "[2]", "result": 0, "unit": "%"}, {"measurement": "Secondary structure proportion: Random", "setting": "[2]", "result": 66.1, "unit": "%"}, {"measurement": "Secondary structure proportion: Turn", "setting": "[2]", "result": 1.7, "unit": "%"}, {"measurement": "cytotoxicity", "setting": "MIA PaCa-2 cells", "result": "no obvious cytotoxicity"}, {"measurement": "signal accumulation in tumor relative to M2", "setting": "[3]", "result": "twice"}, {"measurement": "Average radiant efficiency, spleen", "setting": "[3]; average of n = 3", "result": 203.333, "unit": "P/sec"}, {"measurement": "blood circulation half-life (t1/2)", "setting": "[4]", "result": "110 ± 3", "unit": "min"}]}, {"substance": "mPEG-GPAKLVFFGCGRGD [M3, the non-labeling molecule of M1 (no IR783)]", "values": [{"measurement": "pyrene I1/I3", "setting": "[1]; conc 100 μM", "result": 1.163}, {"measurement": "pyrene I1/I3", "setting": "[1]; conc 200 μM", "result": 1.158}, {"measurement": "pyrene I1/I3", "setting": "[1]; conc 300 μM", "result": 1.141}, {"measurement": "pyrene I1/I3", "setting": "[1]; conc 400 μM", "result": 1.131}, {"measurement": "pyrene I1/I3", "setting": "[1]; conc 500 μM", "result": 1.152}, {"measurement": "pyrene I1/I3", "setting": "[1]; conc 600 μM", "result": 1.067}, {"measurement": "pyrene I1/I3", "setting": "[1]; conc 700 μM", "result": 1.052}, {"measurement": "pyrene I1/I3", "setting": "[1]; conc 800 μM", "result": 1.029}, {"measurement": "pyrene I1/I3", "setting": "[1]; conc 900 μM", "result": 0.978}, {"measurement": "Secondary structure proportion: Beta", "setting": "[2]", "result": 38.7, "unit": "%"}, {"measurement": "Secondary structure proportion: Helix", "setting": "[2]", "result": 45, "unit": "%"}, {"measurement": "Secondary structure proportion: Random", "setting": "[2]", "result": 16.3, "unit": "%"}, {"measurement": "Secondary structure proportion: Turn", "setting": "[2]", "result": 0, "unit": "%"}]}]}
